Laboratory results published in patent US20130040894A1, “INHIBITION OR ACTIVATION OF SERINE/THREONINE ULK3 KINASE ACTIVITY” (TALLINN UNIVERSITY OF TECHNOLOGY, priority 2009, published 2013).
Where a chain is given by its changes, count along the chain named. In names and notes the source's numbering stands.

B1: ULK3: human serine/threonine kinase, 472 amino acids (SEQ ID NO: 1), overexpressed from cloned cDNA or immunopurified FLAG-tagged (protein, listed as Homo sapiens)
chain: MAGPGWGPPRLDGFILTERLGSGTYATVYKAYAKKDTREVVAIKCVAKKSLNKASVENLLTEIEILKGIRHPHIVQLKDFQWDSDNIYLIMEFCAGGDLSRFIHTRRILPEKVARVFMQQLASALQFLHERNISHLDLKPQNILLSSLEKPHLKLADFGFAQHMSPWDEKHVLRGSPLYMAPEMVCQRQYDARVDLWSMGVILYEALFGQPPFASRSFSELEEKIRSNRVIELPLRPLLSRDCRDLLQRLLERDPSRRISFQDFFAHPWVDLEHMPSGESLGRATALVVQAVKKDQEGDSAAALSLYCKALDFFVPALHYEVDAQRKEAIKAKVGQYVSRAEELKAIVSSSNQALLRQGTSARDLLREMARDKPRLLAALEVASAAMAKEEAAGGEQDALDLYQHSLGELLLLLAAEPPGRRRELLHTEVQNLMARAEYLKEQVKMRESRWEADTLDKEGLSESVRSSCTLQ
modifications: PEPTIDE (1)..(472) ULK3
B2: ULK3(K139R): kinase-deficient ULK3 mutant with Lysine at position 139 mutated to Arginine (SEQ ID NO:7) (protein)
chain: B1 chain with K139R
modifications: MUTAGEN (1)..(472) mutated ULK3 protein ULK3 (K139R)

Assays:
[1] = test system: GLI-dependent firefly luciferase activity in Shh-LIGHT2 cells; experiment: GLI-dependent luciferase assay in Shh-L2 cells; assay type: cell-based, mouse; conditions: for enhancement of transcriptional activity of overexpressed GLI1: cotransfected with GLI1, Shh-L2 cells; for enhancement of transcriptional activity of overexpressed GLI2: cotransfected with GLI2, Shh-L2 cells
Experimental: Cells were transfected by the expression constructs or respective empty vectors using Polyethylenimine transfection agent (PEI) (Inbio) and as described in [28]. We used 0.25 μg of cDNA per 1 cm^2 of plate surface area for transfections. After 3 h of transfection HEK293, NIH3T3 and Cos1 cells were propagated in the normal growth medium for 48 h. Prior the further analysis the cells were washed twice with PBS. Post-transfectional Shh-L2 cells were grown in the normal growth medium for 24 h and for additional 24 h in the Light medium containing 0.25% FBS, washed once with PBS, lysed in Passive Lysis Buffer (Promega, Madison Wis., USA) (70 ul per well of 24-well plate format) and subjected to luciferase assay.
Luciferase assay was performed as previously described. Briefly, firefly luciferase activity of 12 μl of the Shh-L2 cells lysate was measured using Luciferase Assay Kit (Promega) and galactosidase activity was quantified using Galacto-LightPlus kit (Tropix, Bedford Mass., USA) according to the manufacturer's instructions. Chemiluminicence was measured using Ascent FL Fluoroscan (Thermo Electron Corporation, Waltham Mass., USA) according to the manufacturer's instructions.
We cotransfected the constructs together with GLI-expressing plasmids (or respective empty vector) into Shh-L2 cells and assessed their effect on GLI-dependent firefly luciferase activity. The obtained data was normalized with β-galactosidase values. […] It was able to stimulate the luciferase activity 3.8 times and enhanced the transcriptional activity of over expressed GLI1 and GLI2 approximately 2 and 3.2 times, respectively. The potency of STK36 in the assay was much lower.
In order to examine if the kinase activity of ULK3 is required for the luciferase reporter activation we tested the supposed kinase-deficient variants of ULK3, ULK3(K44R) and ULK3(K139R) in the same assay. […] We also tested the effect of ULK3 and the mutants on the luciferase reporter when the SHH pathway was activated by cotransfection with pShhN (plasmid expressing biologically active part of SHH).

[2] = test system: GLI1GFP localization in NIH3T3 cells; experiment: Immunofluorescence assay, subcellular localization of GFP-tagged GLI1; assay type: cell-based, mouse; conditions: coexpressed with GLI1GFP in NIH3T3 cells
Experimental: (§1) NIH3T3 cells were transfected with GLI1GFP and FLAG-tagged expression constructs for ULK3 or ULK3(K139R) in ratio 1:1 on 8-chamber slides (Falcon, BD Biosciences, San Jose Calif., USA). The cells were fixed with 4% paraformaldehyde and washed three times for 5 min with Stain Wash Medium (SWM) (0.5% BSA and 0.01% NaN3 in PBS). Subsequent permeabilization of cells was performed at RT by 10-min incubation in. PBS supplemented with 0.5% Triton X-100. Afterwards, the cells were washed three times for 5 min with SWM, blocked for 30 min in PBS containing 5% bovine serum albumin (BSA), and incubated with mouse monoclonal M2-anti-FLAG antibody (diluted 1:1000 in SWM) for 1 h at RT with gentle agitation. After three washes of 10 min with SWM, the cells were incubated for 30 min with secondary antibody Alexa-Fluor 568 (Invitrogen) (diluted 1:500 in SWM) mixed with nuclear stain Hoechst 33342 (diluted 1:100). Cells were washed twice with SWM and mounted with Mowiol 4-88 (Sigma-Aldrich). GLI1GFP protein localization was assessed in at least 200 FLAG-positive cells under a fluorescent microscope Olympus BX61 with UPLan SApo 40× objective, and the experiment was repeated three times. Confocal images were obtained with a Zeiss LSM-510 META confocal laser-scanning microscope (Carl Zeiss MicroImaging GmbH, Germany) equipped with Plan-Apochromat 63×/1.4 oil immersion objective.
Next we examined if overexpression of ULK3 kinase influences the subcellular localization of GLI1 and GLI2 proteins. […] FLAG-tagged ULK3 and ULK3(K139R) (or respective empty vector) were coexpressed with GFP-tagged GLI1 and GLI2 in NIH3T3 cells. Subcellular localization of GLI1 and GLI2 was determined, and average values were calculated from three independent experiments. ULK3 and its mutant remained almost completely cytoplasmic. GFP-tagged GLI2 localized predominantly in the nucleus and its localization was not altered by ULK3 or ULK3(K139R) (data not shown). Overexpressed GLI1GFP was detected both in cytoplasm and nucleus (FIG. 3A). […] Under the influence of ULK3 localization of GLI1 was shifted.

[3] = test system: GFP-tagged GLI2 localization in NIH3T3 cells; experiment: Immunofluorescence assay, subcellular localization of GFP-tagged GLI2; assay type: cell-based, mouse; conditions: coexpressed with GFP-tagged GLI2 in NIH3T3 cells
Experimental: as §1, with “After three washes of 10 min with SWM, the cells were incubated for 30 min with secondary antibody Alexa-Fluor 568 (Invitrogen) (diluted 1:500 in SWM) mixed with nuclear stain Hoechst 33342 (diluted 1:100). Cells were washed twice with SWM and mounted with Mowiol 4-88 (Sigma-Aldrich).” left out, “Confocal images were obtained with a Zeiss LSM-510 META confocal laser-scanning microscope (Carl Zeiss MicroImaging GmbH, Germany) equipped with Plan-Apochromat 63×/1.4 oil immersion objective.” left out
Next we examined if overexpression of ULK3 kinase influences the subcellular localization of GLI1 and GLI2 proteins. […] Subcellular localization of GLI1 and GLI2 was determined, and average values were calculated from three independent experiments. […] Overexpressed GLI1GFP was detected both in cytoplasm and nucleus (FIG. 3A). […]

[4] = test system: GLI1 in nuclear extracts of Cos1 cells; experiment: Cell fractionation analysis with WB; assay type: cell-based, primate; conditions: cotransfected with FLAG-tagged GLI1 in Cos1 cells, lamin A/C loading control
Experimental: Cos1 cells were transfected with FLAG-tagged expression constructs for GLI1 combined with ULK3, ULK3(K139R) or empty vector in ratio 1:1 on 10 cm plates. Nuclear and whole cell extracts (NE and WCE, respectively) were prepared as described in [36]. All extracts were normalized for protein amounts measured using […] kit (Thermo Scientific). A total 10 μg of protein were separated by SDS-PAGE and transferred to the PVDF membrane (Millipore, Billerica Mass., USA). The membrane was segmented according to the expected size of the detected proteins. Obtained strips were probed with the appropriate antibodies.
WB was performed using a non-blocking technique as described in [37]. Mouse monoclonal M2-anti-FLAG antibody (Sigma-Aldrich) was used for detection of FLAG-tagged GLI1, GLI2, GLI3, ULK3, ULK3(K44R) and ULK3(K139R) by WB in dilution 1:2000. Lamin A/C was detected with mouse monoclonal anti-Lamin A/C antibody (Upstate, Billerica Mass., USA) diluted 1:1000. Mouse monoclonal anti-His antibody (Novagen, Darmstadt, Germany) diluted 1:1500 was used for detection of bacterially expressed and purified GLI1 fragements. […]
To confirm the data from the immunofluorescent staining, we performed cell fractionation analysis. […] Expression of lamin A/C was analyzed as a loading control. ULK3 and ULK3(K139R) were detected mostly in WCEs.

Molecule	enhancement of transcriptional activity of overexpressed GLI1 [1]	enhancement of transcriptional activity of overexpressed GLI2 [1]	induction of luciferase activity with activated SHH pathway ([1]; cotransfection with pShhN, Shh-L2 cells)	stimulation of GLI-dependent luciferase activity ([1]; kinase construct alone, Shh-L2 cells, normalized with β-galactosidase) [times]	cells that retained GLI1 in the cytoplasm ([2]; average of three experiments) [%]	cells with GLI1 mostly in the nucleus ([2]; average of three experiments) [%]	cells with uniform distribution of GLI1 ([2]; average of three experiments) [%]	influence on GLI2 subcellular localization [3]	amount of GLI1 in nuclear extracts [4]	influence on GLI1 subcellular localization [2]
B1	approximately 2 times	~3.2 times	approximately 4.1 times	3.8	2	70	25	not altered	retained most of the GLI1 in the nuclei	–
B2	neither of the mutants had an effect	completely inactive	–	–	–	–	–	not altered	significantly lower amounts of GLI1	did not influence
